Experimental data reported in patent publication CN101407544A.

How the values were obtained:
[1] = molecular target: T1, GP73 in human prostatic hyperplasia tissue sections (前列腺增生组织石蜡切片中的GP73) (human) (UniProt Q8NBJ4); experiment: immunohistochemistry on paraffin sections
T1 sequence (looked up): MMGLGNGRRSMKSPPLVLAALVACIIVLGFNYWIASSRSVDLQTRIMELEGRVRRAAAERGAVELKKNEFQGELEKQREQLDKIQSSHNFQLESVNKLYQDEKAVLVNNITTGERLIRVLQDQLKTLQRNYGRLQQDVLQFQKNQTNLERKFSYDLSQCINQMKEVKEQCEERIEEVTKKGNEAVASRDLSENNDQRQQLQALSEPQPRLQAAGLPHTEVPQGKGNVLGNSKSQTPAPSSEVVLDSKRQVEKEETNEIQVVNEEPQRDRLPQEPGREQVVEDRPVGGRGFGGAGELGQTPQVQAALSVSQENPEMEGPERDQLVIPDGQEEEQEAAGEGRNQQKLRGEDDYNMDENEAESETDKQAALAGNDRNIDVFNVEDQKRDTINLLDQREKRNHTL

[2] = molecular target: T2, 重组人GP73蛋白 His-GP73 (recombinant human Golgi protein 73 fragment with His tag, expressed in E. coli from pET-28-a(+)) (human) (UniProt Q8NBJ4); experiment: double antibody sandwich ELISA: 6A2 (1 μg/ml) capture, His-GP73 standard, rabbit anti-GP73 serum (1:1000) detection
T2 sequence (looked up): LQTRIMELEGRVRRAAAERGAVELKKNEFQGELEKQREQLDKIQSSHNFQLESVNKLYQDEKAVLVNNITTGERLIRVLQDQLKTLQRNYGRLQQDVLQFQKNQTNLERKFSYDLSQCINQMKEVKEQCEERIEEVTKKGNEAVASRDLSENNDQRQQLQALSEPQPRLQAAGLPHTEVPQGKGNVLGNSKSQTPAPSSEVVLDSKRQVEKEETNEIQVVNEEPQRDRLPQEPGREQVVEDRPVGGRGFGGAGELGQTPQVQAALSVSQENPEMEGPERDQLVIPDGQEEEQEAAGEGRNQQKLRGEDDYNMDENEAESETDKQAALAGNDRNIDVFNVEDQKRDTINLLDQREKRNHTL

效价 (titer in immunohistochemistry) (titer (1:x dilution)) [1]: 1000 | 最低检测限 (lowest detection limit of the sandwich ELISA) [2]: 0.25 ng/mL
B1: 抗GP73单克隆抗体6A2 (anti-GP73 mAb) (antibody, part only; not given: light chain variable region, V domains shown, part only)
VH: DFNIKDTYMHWMKQRPEQGLEWIGRIDPANGNTKYDPKFQGKATITTDTSSNTAYLQLSSLTSEDTAVYYCAREDYGNLWYFDV
